Measured values: PMC5581047

Molecular target: GST-ERα (179-312), C/D domains (UniProt P03372)
Experiment: pull-down; GST-ERα domains or full length bound to glutathione-Sepharose 4B beads, incubated with recombinant Api5 protein; Western blot

B1: Recombinant Api5 protein (natural protein)
chain: MPTVEELYRNYGILADATEQVGQHKDAYQVILDGVKGGTKEKRLAAQFIPKFFKHFPELADSAINAQLDLCEDEDVSIRRQAIKELPQFATGENLPRVADILTQLLQTDDSAEFNLVNNALLSIFKMDAKGTLGGLFSQILQGEDIVRERAIKFLSTKLKTLPDEVLTKEVEELILTESKKVLEDVTGEEFVLFMKILSGLKSLQTVSGRQQLVELVAEQADLEQTFNPSDPDCVDRLLQCTRQAVPLFSKNVHSTRFVTYFCEQVLPNLGTLTTPVEGLDIQLEVLKLLAEMSSFCGDMEKLETNLRKLFDKLLEYMPLPPEEAENGENAGNEEPKLQFSYVECLLYSFHQLGRKLPDFLTAKLNAEKLKDFKIRLQYFARGLQVYIRQLRLALQGKTGEALKTEENKIKVVALKITNNINVLIKDLFHIPPSYKSTVTLSWKPVQKVEIGQKRASEDTTSGSPPKKSSAGPKRDARQIYNPPSGKYSSNLGNFNYEQRGAFRGSRGGRGWGTRGNRSRGRLY
B1 was tested, and the percent of the binding of Api5 to full length GST-ERα (1-595) was greater than 60%.
